Source: patent US20260117202A1
Several values for one entry are separate records, joined by “and”; a condition that tells them apart may be missing. Equal entries are not always repeated.

What was measured:
FHCS-4 (RSV strain A2) [1] = biological target: FHCS-4 (RSV strain A2) (UniProt P03420); assay: ELISA; F coated 312.5 ng/ml; stored -80° C.
FHCS-2 (RSV strain A2) [2] = biological target: FHCS-2 (RSV strain A2) (UniProt P03420); assay: ELISA; F coated 312.5 ng/ml; stored -80° C.
FHCS-1 (RSV strain A2) [3] = biological target: FHCS-1 (RSV strain A2) (UniProt P03420); assay: ELISA; F coated 312.5 ng/ml; stored -80° C.
FHCS-4 (RSV strain A2) [4] = biological target: FHCS-4 (RSV strain A2) (UniProt P03420); assay: ELISA; F coated 156.3 ng/ml; stored -80° C.
FHCS-2 (RSV strain A2) [5] = biological target: FHCS-2 (RSV strain A2) (UniProt P03420); assay: ELISA; F coated 156.3 ng/ml; stored -80° C.
FHCS-4 (RSV strain A2) [6] = biological target: FHCS-4 (RSV strain A2) (UniProt P03420); assay: ELISA; F coated 1250 ng/ml; stored 37° C. 2 W
FHCS-2 (RSV strain A2) [7] = biological target: FHCS-2 (RSV strain A2) (UniProt P03420); assay: ELISA; F coated 1250 ng/ml; stored 37° C. 2 W
FHCS-1 (RSV strain A2) [8] = biological target: FHCS-1 (RSV strain A2) (UniProt P03420); assay: ELISA; F coated 1250 ng/ml; stored 37° C. 2 W
FHCS-4 (RSV strain A2) [9] = biological target: FHCS-4 (RSV strain A2) (UniProt P03420); assay: ELISA; F coated 156.3 ng/ml; stored -80° C.; remark: listed apart in the source
FHCS-2 (RSV strain A2) [10] = biological target: FHCS-2 (RSV strain A2) (UniProt P03420); assay: ELISA; F coated 156.3 ng/ml; stored -80° C.; remark: listed apart in the source
FHCS-1 (RSV strain A2) [11] = biological target: FHCS-1 (RSV strain A2) (UniProt P03420); assay: ELISA; F coated 156.3 ng/ml; stored -80° C.
FHCS-4 (RSV strain A2) [12] = biological target: FHCS-4 (RSV strain A2) (UniProt P03420); assay: ELISA; F coated 2500 ng/ml; stored -80° C.
FHCS-2 (RSV strain A2) [13] = biological target: FHCS-2 (RSV strain A2) (UniProt P03420); assay: ELISA; F coated 2500 ng/ml; stored -80° C.
FHCS-1 (RSV strain A2) [14] = biological target: FHCS-1 (RSV strain A2) (UniProt P03420); assay: ELISA; F coated 2500 ng/ml; stored -80° C.
FHCS-4 (RSV strain A2) [15] = biological target: FHCS-4 (RSV strain A2) (UniProt P03420); assay: ELISA; F coated 625 ng/ml; stored 37° C. 2 W
FHCS-2 (RSV strain A2) [16] = biological target: FHCS-2 (RSV strain A2) (UniProt P03420); assay: ELISA; F coated 625 ng/ml; stored 37° C. 2 W
FHCS-1 (RSV strain A2) [17] = biological target: FHCS-1 (RSV strain A2) (UniProt P03420); assay: ELISA; F coated 625 ng/ml; stored 37° C. 2 W
FHCS-4 (RSV strain A2) [18] = biological target: FHCS-4 (RSV strain A2) (UniProt P03420); assay: ELISA; F coated 1250 ng/ml; stored -80° C.
FHCS-2 (RSV strain A2) [19] = biological target: FHCS-2 (RSV strain A2) (UniProt P03420); assay: ELISA; F coated 1250 ng/ml; stored -80° C.
FHCS-1 (RSV strain A2) [20] = biological target: FHCS-1 (RSV strain A2) (UniProt P03420); assay: ELISA; F coated 1250 ng/ml; stored -80° C.
FHCS-4 (RSV strain A2) [21] = biological target: FHCS-4 (RSV strain A2) (UniProt P03420); assay: ELISA; F coated 312.5 ng/ml; stored 37° C. 2 W
FHCS-2 (RSV strain A2) [22] = biological target: FHCS-2 (RSV strain A2) (UniProt P03420); assay: ELISA; F coated 312.5 ng/ml; stored 37° C. 2 W
FHCS-1 (RSV strain A2) [23] = biological target: FHCS-1 (RSV strain A2) (UniProt P03420); assay: ELISA; F coated 312.5 ng/ml; stored 37° C. 2 W
FHCS-4 (RSV strain A2) [24] = biological target: FHCS-4 (RSV strain A2) (UniProt P03420); assay: ELISA; F coated 78.13 ng/ml; stored 37° C. 4 W
FHCS-2 (RSV strain A2) [25] = biological target: FHCS-2 (RSV strain A2) (UniProt P03420); assay: ELISA; F coated 78.13 ng/ml; stored 37° C. 4 W
FHCS-1 (RSV strain A2) [26] = biological target: FHCS-1 (RSV strain A2) (UniProt P03420); assay: ELISA; F coated 78.13 ng/ml; stored 37° C. 4 W
FHCS-1 (RSV strain A2) [27] = biological target: FHCS-1 (RSV strain A2) (UniProt P03420); assay: ELISA; F coated 312.5 ng/ml; stored -80° C.; remark: listed apart in the source
FHCS-4 (RSV strain A2) [28] = biological target: FHCS-4 (RSV strain A2) (UniProt P03420); assay: ELISA; F coated 10000 ng/ml; stored -80° C.
FHCS-4 (RSV strain A2) [29] = biological target: FHCS-4 (RSV strain A2) (UniProt P03420); assay: ELISA; F coated 10000 ng/ml; stored 37° C. 4 W
FHCS-2 (RSV strain A2) [30] = biological target: FHCS-2 (RSV strain A2) (UniProt P03420); assay: ELISA; F coated 10000 ng/ml; stored 37° C. 4 W
FHCS-1 (RSV strain A2) [31] = biological target: FHCS-1 (RSV strain A2) (UniProt P03420); assay: ELISA; F coated 10000 ng/ml; stored 37° C. 4 W
FHCS-4 (RSV strain A2) [32] = biological target: FHCS-4 (RSV strain A2) (UniProt P03420); assay: ELISA; F coated 10000 ng/ml; stored -80° C.; remark: listed apart in the source
FHCS-2 (RSV strain A2) [33] = biological target: FHCS-2 (RSV strain A2) (UniProt P03420); assay: ELISA; F coated 10000 ng/ml; stored -80° C.
FHCS-1 (RSV strain A2) [34] = biological target: FHCS-1 (RSV strain A2) (UniProt P03420); assay: ELISA; F coated 10000 ng/ml; stored -80° C.
FHCS-4 (RSV strain A2) [35] = biological target: FHCS-4 (RSV strain A2) (UniProt P03420); assay: ELISA; F coated 5000 ng/ml; stored -80° C.
FHCS-2 (RSV strain A2) [36] = biological target: FHCS-2 (RSV strain A2) (UniProt P03420); assay: ELISA; F coated 5000 ng/ml; stored -80° C.
FHCS-1 (RSV strain A2) [37] = biological target: FHCS-1 (RSV strain A2) (UniProt P03420); assay: ELISA; F coated 5000 ng/ml; stored -80° C.

In the case of Synagis® (antibody), the OD value (FHCS-4 (RSV strain A2) [1]) is reported as 0.032 OD and 0.028 OD, the OD value (FHCS-2 (RSV strain A2) [2]) is reported as 0.109 OD and 0.097 OD and the OD value (FHCS-1 (RSV strain A2) [3]) is reported as 0.065 OD and 0.053 OD. For the same substance, the OD value (FHCS-4 (RSV strain A2) [4]) was 0.021 OD and 0.017 OD, the OD value (FHCS-2 (RSV strain A2) [5]) was 0.028 OD and 0.032 OD and the OD value (FHCS-4 (RSV strain A2) [6]) was 0.535 OD and 0.54 OD. For the same substance, the OD value (FHCS-2 (RSV strain A2) [7]) was 0.78 OD and 0.704 OD, the OD value (FHCS-1 (RSV strain A2) [8]) was 0.478 OD and 0.493 OD and the OD value (FHCS-4 (RSV strain A2) [9]) was 0.016 OD. The OD value (FHCS-2 (RSV strain A2) [10]) was 0.043 OD and 0.038 OD, the OD value (FHCS-1 (RSV strain A2) [11]) was 0.021 OD and 0.019 OD and the OD value (FHCS-4 (RSV strain A2) [12]) was 0.947 OD and 0.991 OD. For the same substance, the OD value (FHCS-2 (RSV strain A2) [13]) was 1.78 OD and 1.8 OD, the OD value (FHCS-1 (RSV strain A2) [14]) was 1.5 OD and 1.61 OD and the OD value (FHCS-4 (RSV strain A2) [15]) was 0.187 OD and 0.166 OD. For the same substance, the OD value (FHCS-2 (RSV strain A2) [16]) was 0.211 OD and 0.227 OD, the OD value (FHCS-1 (RSV strain A2) [17]) was 0.123 OD and 0.125 OD and the OD value (FHCS-4 (RSV strain A2) [18]) was 0.321 OD and 0.328 OD. For the same substance, the OD value (FHCS-2 (RSV strain A2) [19]) was 0.928 OD, the OD value (FHCS-1 (RSV strain A2) [20]) was 0.635 OD and 0.642 OD and the OD value (FHCS-4 (RSV strain A2) [21]) was 0.074 OD and 0.071 OD. The OD value (FHCS-2 (RSV strain A2) [22]) was 0.084 OD and 0.095 OD, the OD value (FHCS-1 (RSV strain A2) [23]) was 0.051 OD and 0.05 OD and the OD value (FHCS-4 (RSV strain A2) [24]) was 0.019 OD and 0.025 OD. The OD value (FHCS-2 (RSV strain A2) [25]) was 0.03 OD and 0.028 OD and the OD value (FHCS-1 (RSV strain A2) [26]) was 0.025 OD and 0.032 OD.
AM14 monoclonal antibody was tested, and the OD value (FHCS-1 (RSV strain A2) [27]) was 0.004 OD and 0.008 OD, the OD value (FHCS-4 (RSV strain A2) [28]) was 2.13 OD and 1.93 OD and the OD value (FHCS-4 (RSV strain A2) [29]) was 1.76 OD and 2.01 OD. For the same substance, the OD value (FHCS-2 (RSV strain A2) [30]) was 2.11 OD and 2.23 OD, the OD value (FHCS-1 (RSV strain A2) [31]) was 1.87 OD and 2.17 OD and the OD value (FHCS-4 (RSV strain A2) [32]) was 0.825 OD and 0.743 OD. The OD value (FHCS-2 (RSV strain A2) [33]) was 2.01 OD and 2.11 OD, the OD value (FHCS-1 (RSV strain A2) [34]) was 1.77 OD and 2.07 OD and the OD value (FHCS-4 (RSV strain A2) [35]) was 0.252 OD and 0.209 OD. For the same substance, the OD value (FHCS-2 (RSV strain A2) [36]) was 0.985 OD and 0.796 OD and the OD value (FHCS-1 (RSV strain A2) [37]) was 0.902 OD and 0.775 OD.
